According to FireProtDB (doi:10.1021/bi992257j):

B1: Rubredoxin, P24297 (parent)
chain: MAKWVCKICGYIYDEDAGDPDNGISPGTKFEELPDDWVCPICGAPKSEFEKLED

Variants of: B1
Conditions: Pyrococcus furiosus (strain ATCC 43587 / DSM 3638 / JCM 8422 / Vc1), pH 6.3, CD, Sodium phosphate 50 mM, reversible: yes, structure 1BRF, whole UniProt chain shown; for denaturant m value / denaturant midpoint (higher = more stable) / unfolding free energy: 1 °C; for Tm: Thermal

C6L C9T C39A C42T A2Q
denaturant m value (Urea): 0.93 kcal/mol/M
denaturant midpoint (higher = more stable) (Urea): 3.8 M
unfolding free energy (Urea): 3.5 kcal/mol
Tm: 63 °C

C6L C9T C39A C42T A2Q E15T
denaturant m value (Urea): 1.03 kcal/mol/M
denaturant midpoint (higher = more stable) (Urea): 1.6 M
unfolding free energy (Urea): 1.7 kcal/mol
Tm: 41 °C

C6L C9T C39A C42T A2Q E15Q
denaturant m value (GdnHCl): 3 kcal/mol/M
denaturant midpoint (higher = more stable) (GdnHCl): 0.5 M
unfolding free energy (GdnHCl): 1.5 kcal/mol
denaturant m value (Urea): 1.03 kcal/mol/M
denaturant midpoint (higher = more stable) (Urea): 2 M
unfolding free energy (Urea): 2.1 kcal/mol
Tm: 39 °C

C6L C9T C39A C42T K7A E50A
denaturant m value (GdnHCl): 2.2 kcal/mol/M
denaturant midpoint (higher = more stable) (GdnHCl): 1.27 M
unfolding free energy (GdnHCl): 2.8 kcal/mol
denaturant m value (Urea): 0.84 kcal/mol/M
denaturant midpoint (higher = more stable) (Urea): 4.5 M
unfolding free energy (Urea): 3.8 kcal/mol
Tm: 74 °C

C6L C9T C39A C42T K7A
denaturant m value (GdnHCl): 2 kcal/mol/M
denaturant midpoint (higher = more stable) (GdnHCl): 1.6 M
unfolding free energy (GdnHCl): 3.2 kcal/mol
denaturant m value (Urea): 0.81 kcal/mol/M
denaturant midpoint (higher = more stable) (Urea): 4.9 M
unfolding free energy (Urea): 4 kcal/mol
Tm: 74 °C

C6L C9T C39A C42T
denaturant m value (GdnHCl): 1.9 kcal/mol/M
denaturant midpoint (higher = more stable) (GdnHCl): 1.68 M
unfolding free energy (GdnHCl): 3.2 kcal/mol
Tm: 82 °C

C6L C9T C39A C42T E50A
denaturant m value (GdnHCl): 2.3 kcal/mol/M
denaturant midpoint (higher = more stable) (GdnHCl): 1.35 M
unfolding free energy (GdnHCl): 3.1 kcal/mol
denaturant m value (Urea): 0.86 kcal/mol/M
denaturant midpoint (higher = more stable) (Urea): 4.8 M
unfolding free energy (Urea): 4.1 kcal/mol
Tm: 77 °C

C6L C9T C39A C42T E15T
denaturant m value (Urea): 0.98 kcal/mol/M
denaturant midpoint (higher = more stable) (Urea): 1.3 M
unfolding free energy (Urea): 1.3 kcal/mol
Tm: 38 °C

C6L C9T C39A C42T E15Q
denaturant m value (GdnHCl): 2.5 kcal/mol/M
denaturant midpoint (higher = more stable) (GdnHCl): 0.63 M
unfolding free energy (GdnHCl): 1.7 kcal/mol
denaturant m value (Urea): 0.91 kcal/mol/M
denaturant midpoint (higher = more stable) (Urea): 3 M
unfolding free energy (Urea): 2.7 kcal/mol
Tm: 57 °C
